Where a chain is given by its changes, count along the chain named. Numbers in names are those of the source.
T1: rhLRP1 cluster II (Homo sapiens, UniProt Q07954)
T1 construct: rhLRP1 cluster II (aa 786-1165, C-terminal Fc, 1 μg); purchased R&D Systems; host or cells: NS0
T1 sequence (Q07954 786-1165): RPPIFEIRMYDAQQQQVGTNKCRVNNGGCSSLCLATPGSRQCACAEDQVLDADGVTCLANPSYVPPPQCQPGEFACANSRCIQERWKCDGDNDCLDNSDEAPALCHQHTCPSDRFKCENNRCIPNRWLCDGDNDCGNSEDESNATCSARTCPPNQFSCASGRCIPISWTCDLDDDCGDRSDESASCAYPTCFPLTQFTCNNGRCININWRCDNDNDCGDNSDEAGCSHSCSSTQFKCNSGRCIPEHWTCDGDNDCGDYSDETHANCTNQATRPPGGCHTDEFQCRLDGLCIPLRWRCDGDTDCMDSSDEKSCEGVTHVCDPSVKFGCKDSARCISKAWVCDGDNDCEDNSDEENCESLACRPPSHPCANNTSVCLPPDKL

B1: MegaRAP1 d3 T213S: MegaRAP1 d3 revertant T213S (protein)
chain: LDRLRRVSHQGYSTEAKFEEPRVIDLWDLAQSANLTDKELEAFREELKYFKAKIEAHNHYQKQLEIAHEELRHAESVGDGERVSRSREKHALLEGRTKELGYTVKKHLQDLSGRISRAR
B2: MegaRAP1 d3 K217E: MegaRAP1 d3 revertant K217E (protein)
chain: B1 chain with S13T, K17E
B3: MegaRAP1 d3 Y249H: MegaRAP1 d3 revertant Y249H (protein)
chain: B1 chain with S13T, Y49H
B4: MegaRAP1 d3 K251E: MegaRAP1 d3 revertant K251E (protein)
chain: B1 chain with S13T, K51E
B5: MegaRAP1 d3 A256K: MegaRAP1 d3 revertant A256K (protein)
chain: B1 chain with S13T, A56K
B6: RAP d3 K270E: RAP d3 forward mutant K270E (protein)
chain: B1 chain with K17E, Y49H, K51E, A56K
B7: mRAP: linearized control of mRAPc, both cysteines substituted with serines (SEQ ID NO: 107) (peptide)
chain: SGFREELKHFEAKIEKHNHYQKQLEIAHEKLRHAESVGDGERVSRSREKHALLEGRTKELGYTVKKHLQDLSGGS
B8: mRAPcko: mRAPc with the mutations K256A and K270E (peptide)
peptide: GGSGGCGFREELKHFEAKIEAHNHYQKQLEIAHEELRHAESVGDGERVSRSREKHALLEGRTKELGYTVKKHLQDLSGGC
modifications: N-terminal biotin; intramolecular disulfide bond between C241 and C315 (otherwise identical to mRAPc)
notes: mRAPc with the mutations K256A and K270E
B9: mRAp-8c: cyclic RAP peptide, amino acids 246 to 312, E246C, L247G, L311G, S312C (SEQ ID NO: 100) (protein)
chain: CGKHFEAKIEKHNHYQKQLEIAHEKLRHAESVGDGERVSRSREKHALLEGRTKELGYTVKKHLQDGC
modifications: chains of the parent or of the whole protein
B10: Heptide: cyclic RAP peptide, amino acids 246 to 313, E246C, L247G, G280A, L311A, S312C (SEQ ID NO: 103) (protein)
chain: CGKHFEAKIEKHNHYQKQLEIAHEKLRHAESVGDAERVSRSREKHALLEGRTKELGYTVKKHLQDACG
modifications: chains of the parent or of the whole protein

What was measured:
[1] = target: T2, LRP1 CR3-5 (Homo sapiens, UniProt Q07954); assay: Solid phase binding assay; details: solid-phase assay
T2 construct: made in house; host or cells: E. coli BL21(DE3) CodonPlus-RIPL, pET30(+)a
Procedure: (§1) All expression constructs were sequenced to verify insert sequences and the junctions with the expression vector. Each plasmid was then used to transform BL21(DE3) CodonPlus-RIPL™ cells (Stratagene). Expression of the CR proteins was induced in logarithmic growth-phase cells grown in LB supplemented with 34 μg/mL chloramphenicol, 12.5 μg/mL tetracycline and 15 μg/mL kanamycin by addition of 2 mM IPTG, followed by reduction in incubator temperature to 32° C. and incubation for 4 hours with agitation at […]. Cells were pelleted and resuspended, at 3.5% of the initial culture volume in 10 mM Tris-HCl pH 8, 100 mM NaH2PO4, 8M Urea. Resuspended cells were then frozen in liquid nitrogen, rapidly thawed to 37° C. and sonicated for 10 seconds at an amplitude setting of 60 using a Cole-Parmer CP-130 ultrasonic processor connected to a 3 mm probe. This procedure was repeated three times to effect complete lysis of the cells. Lysates were clarified by spinning twice at 10,000×g in a Sorvall RC-5 centrifuge for 20 minutes at 15° C. Ni-NTA columns (Qiagen Superflow™, 1.5 mL packed bed) were used to purify the CR proteins. Briefly, the resin was equilibrated with two column volumes of lysis buffer. The clarified lysate was then supplemented to 20 mM with imidazole and incubated with the equilibrated Ni-NTA resin overnight at 4° C. The flow-through was discarded. Columns were washed once with one column volume of lysis buffer and then three times with one column volume of TBS pH 8 supplemented with 20 mM imidazole. CR-loaded beads were then removed from the column and CR proteins eluted by incubating at room temperature for 30 minutes with one column volume of the same buffer containing 200 mM imidazole. This step was repeated once and the eluates pooled. Eluted CR protein solutions were then supplemented to 2 M urea, 10 mM CaCl2 and 5 mM DTT. Purified, denatured CR protein solutions were transferred to 3,500 MWCO Slide-A-Lyzer™ (Pierce) cassettes and sequentially dialyzed against a 200-fold excess of 50 mM Tris-HCl pH 8.5, 10 mM CaCl2, 1 mM reduced glutathione, 0.5 mM oxidized glutathione at room temperature overnight and then against TBS supplemented with 5 mM CaCl2 at 4° C. overnight. Protein concentrations were determined by Bradford assay and purity confirmed by SDS-PAGE with Coomassie Brilliant Blue staining.
(§2) Purified, refolded CR protein (1 μg) was bound to Nunc Maxisorp™ 96-well plates in TBS pH 8 supplemented with 5 mM CaCl2 (TBSC) overnight at 4° C. Wells were washed with TBSC and then blocked with TBSC containing 2% bovine serum albumin (BSA). RAP ligands were then incubated with the immobilized receptor at a range of concentrations for 2 hours in the above blocking buffer supplemented with 0.05% Tween-20 at room temperature. Control wells contained no added ligand. As an additional control, to determine whether the absence of calcium affected binding, 10 mM EGTA was included in the incubation medium for some samples. Wells were washed with TBSTC and bound ligands detected with polyclonal anti-RAP (BP41/42, 1:1,000, BioMarin). Excess primary antibody was removed and wells washed before incubation with the secondary antibody, HRP-conjugated goat anti rabbit IgG (Bio-Rad). After washing, TMB substrate solutions (Bio-Rad) were added to detect HRP. Color development was stopped with 1N HCl. Absorption at 450 nm was measured with a microplate spectrophotometer (Molecular Devices). Data were plotted and Kd values derived by non-linear regression with the assumption of single-site binding (GraphPad Prism).
From the large number of CR pairs with unique combinations of amino acids at A, C, A′ and C′ within the calcium-binding loop of each CR, CR pairs or triplets were selected to test their binding to RAP d3 (FIG. 2). An additional pair derived from the FDC-8D6 protein was tested, designated 8D6 CR12, having the sequence ([…]) (SEQ ID NO: 91). […]

[2] = target: T3, LRP2 CR89 (Homo sapiens, UniProt P98164); assay: Solid phase binding assay; details: solid-phase assay
T3 construct: two CR pairs from LRP2 (CR89, CR3435); made in house; host or cells: E. coli BL21(DE3) CodonPlus-RIPL, pET30(+)a
Procedure: as §1, §2

[3] = target: T1, rhLRP1 cluster II; assay: Solid phase binding assay of RAP peptides; details: for Kd: calcium-dependent binding, EDTA-subtracted, read-out: Kd / binding affinity
Procedure: Solid phase binding assays were carried out as follows. Recombinant murine VLDLR ectodomain (aa 1-798, C-terminal hexahistidine, 1 μg) or rhLRP1 cluster II (aa 786-1165, C-terminal Fc, 1 μg) were bound to Nunc Maxisorp™ 96-well plates in TBS pH 8 supplemented with 5 mM CaCl2 (TBSC) overnight at 4° C. Wells were washed with TBSC and then blocked with TBSC containing 2% BSA. Peptides were then incubated with the immobilized receptor at a range of concentrations for 2 hours in the above blocking buffer supplemented with 0.05% Tween-20 at room temperature. Identical binding reactions were done in the presence of 50 mM EDTA to provide a measure of non-specific binding. Control wells contained no added peptide. Additional controls established absence of cross-reactivity between antibodies and receptors. Wells were washed with TBSTC and bound peptides detected with streptavidin-HRP (Pierce) or polyclonal anti-RAP (1:1,000, Raptor Pharmaceutical). Binding of the anti-RAP polyclonal antibody to test peptides was qualitatively confirmed by Western blotting (data not shown). Excess streptavidin-HRP or primary antibody was removed and wells washed before incubation with the secondary antibody, when necessary, HRP-conjugated goat anti rabbit IgG (Bio-Rad). Color was developed using TMB reagents (BioRad). Absorption at 450 nm was measured with a microplate spectrophotometer (Molecular Devices). Absorption obtained in the presence of EDTA was subtracted from absorption obtained in the presence of calcium prior to analysis. Data were plotted and Kd values derived by non-linear regression with the assumption of single-site binding (GraphPad Prism).
The binding affinity of the peptides for LRP1 and VLDLR, another receptor in the LDLR family, was measured as follows. NS0-expressed and purified hrLRP1 or mVLDLR (R&D Systems) were use to coat wells in 96-well plates. Various dilutions of the test peptides were incubated with the immobilized receptors in the presence and absence of 50 mM EDTA in triplicate. Bound peptides were detected with streptavidin-HRP after extensive washing. Binding values measured in the presence of EDTA were subtracted from values measured in the absence of EDTA in order to determine calcium-dependent binding levels. Corrected values were plotted and fitted by non-linear regression with the assumption of a single-binding site using GraphPad Prism.

T3 sequence (P98164 1022-1105 limits assumed): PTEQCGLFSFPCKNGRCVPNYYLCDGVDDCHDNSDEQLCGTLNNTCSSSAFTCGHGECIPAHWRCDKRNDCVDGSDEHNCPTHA

Row | Molecule | binding to LRP1 CR3-5 (in words) [1] | binding to LRP2 CR89 (in words) [2] | affinity (in words) [3] | Kd [3] [nM]
1 | B1 | unable to detectably bind | slightly improved affinities |  | 
2 | B2 | unable to detectably bind | slightly improved affinities |  | 
3 | B3 | failed to bind | failed to bind |  | 
4 | B4 | failed to bind | failed to bind |  | 
5 | B5 | failed to bind | failed to bind |  | 
6 | B6 | failed to measurably bind |  |  | 
7 | B7 |  |  | no measurable affinity | 
8 | B8 |  |  | no measurable affinity | 
9 | B9 |  |  |  | 4 to 6
10 | B10 |  |  |  | ~3.5
